Laboratory results: publication PMC6073757
Where “and” joins values, the source holds several entries; their conditions need not be identical. Equal values may be shown once.

Key:
[1] = biological target: LrtA protein of Synechocystis sp. PCC 6803 (Synechocystis sp. PCC 6803); assay: SEC; Superose 12 10/300 GL, 50 mM Tris pH 8.0, 0.7 M NaCl, 97 uM LrtA (protomer units) loaded in 100 uL, 25 °C; calibrated with blue dextran, albumin, RNase A
[2] = biological target: LrtA protein of Synechocystis sp. PCC 6803 (Synechocystis sp. PCC 6803); assay: cross-linking; glutaraldehyde 1% final, 97 uM LrtA (protomer units), 50 mM Tris pH 8.0, 0.5 M NaCl, room temperature; aliquots on 12% SDS-PAGE

Which results are given for “LrtA protein of Synechocystis sp. PCC 6803 (natural protein)”?
stoichiometry N [1]: 6 and 12; stoichiometry N [2]: 2
